Drawing on the RNAGym collection of RNA variant scans (doi:10.7554/elife.80360), this text covers self-cleavage for 167 variants.

First the molecules themselves.
B1: HDV Ribozyme (parent)
chain: GGCCGGCAUGGUCCCAGCCUCCUCGCUGGCGCCGGCUGGGCAACAUUCCGAGGGGACCGUCCCCUCGGUAAUGGCGAAUGGGACCCA

In this series the parent is B1. The experiment in a line: self-cleavage, relative activity (ratio to wild type); higher = more cleavage; co-transcriptional.
With A16U A42C, the self-cleavage was determined as 0.262.

On to A16U G28A, for which the self-cleavage is 0.0475.

For the variant G17C A77C, the self-cleavage is 0.277.

As to A16U G34C, the self-cleavage stood at 0.369.

For A16U G34A, the self-cleavage turned out to be 0.166.

Consider A16U A87C, for which the self-cleavage turned out to be 1.04.

A16U A87G: the self-cleavage is 0.968.

As for A16U C48U, the self-cleavage turned out to be 1.07.

With A16U C48A, the self-cleavage is 1.07.

On to G17A U23G, for which the self-cleavage stood at 0.427.

G17A G28U: the self-cleavage came out at 0.122.

Turning to G17C A51U, the self-cleavage came to 0.443.

Turning to G17C A51G, the self-cleavage is 0.317.

As for G17A G67C, the self-cleavage came to 0.659.

A16U A70U: the self-cleavage is 0.764.

For the variant A16U C57U, the self-cleavage was determined as 0.831.

Turning to G17A C49A, the self-cleavage came to 0.727.

A16U U27G: the self-cleavage was 0.665.

G17C C84G: the self-cleavage was found to be 0.18.

For the variant G17C C84U, the self-cleavage was determined as 0.326.

As for G17A C66U, the self-cleavage came out at 0.607.

A16U C44A: the self-cleavage stood at 0.598.

As to A16U C44U, the self-cleavage stood at 0.6.

In the case of A16U A77U, the self-cleavage worked out at 0.511.

Consider A16U A71C, for which the self-cleavage was 0.942.

G17A A45C: the self-cleavage was determined as 0.415.

Turning to G17A G39C, the self-cleavage amounted to 0.

Take G17C A83C: the self-cleavage turned out to be 0.244.

G17C A87U: the self-cleavage was found to be 0.171.

For the variant G17C A87C, the self-cleavage was found to be 0.354.

Regarding G17A G54C, the self-cleavage came out at 0.458.

With G17A G35C, the self-cleavage was 0.156.

Consider G17A C30U, for which the self-cleavage was found to be 0.986.

Turning to G17C G35A, the self-cleavage turned out to be 0.147.

As for G17C G35U, the self-cleavage came out at 0.0773.

Regarding A16U G76A, the self-cleavage was determined as 0.939.

In the case of A16U G76C, the self-cleavage was 0.973.

In the case of G17A A87U, the self-cleavage was found to be 0.708.

With A16U G39U, the self-cleavage amounted to 0.403.

A16U G39A: the self-cleavage is 0.32.

With G17C G25U, the self-cleavage came to 0.101.

In the case of G17A C57G, the self-cleavage was found to be 0.674.

Consider A16U G53C, for which the self-cleavage came to 1.01.

For G17A A71U, the self-cleavage is 0.499.

As to G17A A71G, the self-cleavage was determined as 0.675.

Regarding G17A U60A, the self-cleavage was 0.787.

Take G17A G25U: the self-cleavage was 0.0277.

Regarding G17A C36A, the self-cleavage came out at 0.138.

As to G17C A56U, the self-cleavage was found to be 0.427.

For the variant G17A U20G, the self-cleavage turned out to be 0.156.

As for G17A U20C, the self-cleavage amounted to 0.268.

Regarding G17C G52C, the self-cleavage stood at 0.19.

On to A16U C86G, for which the self-cleavage came to 0.853.

In the case of A16U C58G, the self-cleavage is 0.807.

G17C C22U: the self-cleavage came to 0.0639.

Consider G17A A83C, for which the self-cleavage was determined as 0.665.

Consider G17C C64A, for which the self-cleavage is 0.314.

For G17C C64U, the self-cleavage was determined as 0.0475.

For the variant G17C G29U, the self-cleavage was found to be 0.

Consider G17C G29A, for which the self-cleavage was found to be 0.0437.

Regarding G17A G80C, the self-cleavage amounted to 0.345.

Consider A16U C21U, for which the self-cleavage was found to be 0.122.

For G17A A77C, the self-cleavage came to 0.0978.

For the variant G17A A77G, the self-cleavage was 0.295.

With G17A G55U, the self-cleavage was 0.762.

With G17A G40C, the self-cleavage was 0.113.

For G17A U72G, the self-cleavage is 0.378.

As to G17A U72C, the self-cleavage was found to be 0.141.

For G17C A70U, the self-cleavage was found to be 0.277.

For the variant A16U C32A, the self-cleavage stood at 0.177.

With A16U C32U, the self-cleavage is 0.727.

G17A C85A: the self-cleavage was found to be 0.727.

As to G17C C18A, the self-cleavage was found to be 0.

Consider G17A G81A, for which the self-cleavage was 0.151.

In the case of A16U A83U, the self-cleavage is 0.584.

With A16U A83G, the self-cleavage stood at 0.567.

Take A16U C24U: the self-cleavage worked out at 0.314.

For the variant G17C C61G, the self-cleavage was determined as 0.519.

As for A16U U20C, the self-cleavage turned out to be 0.277.

G17A U69A: the self-cleavage turned out to be 0.731.

As for G17C C41G, the self-cleavage worked out at 0.0354.

For the variant G17A C86U, the self-cleavage worked out at 0.885.

As for A16U U72A, the self-cleavage turned out to be 0.554.

Consider G17C C49G, for which the self-cleavage stood at 0.107.

In the case of G17C C49A, the self-cleavage was determined as 0.467.

On to G17A U37G, for which the self-cleavage is 0.172.

As to G17A U37C, the self-cleavage amounted to 1.1.

G17C C58A: the self-cleavage came to 0.388.

On to G17A G52C, for which the self-cleavage is 0.923.

On to A16U C26A, for which the self-cleavage stood at 1.05.

In the case of A16U G67A, the self-cleavage came out at 0.988.

For the variant A16U C75G, the self-cleavage turned out to be 0.119.

Regarding G17A C18U, the self-cleavage stood at 0.106.

In the case of G17A C18A, the self-cleavage stood at 0.252.

Regarding G17C C57G, the self-cleavage was determined as 0.516.

For A16U G55U, the self-cleavage is 1.09.

With A16U G55A, the self-cleavage came to 0.784.

Consider A16U C18A, for which the self-cleavage turned out to be 0.107.

For the variant A16U G52C, the self-cleavage was determined as 0.696.

For G17A G73U, the self-cleavage amounted to 0.188.

As to G17A U47G, the self-cleavage amounted to 0.657.

Consider G17A A78G, for which the self-cleavage worked out at 0.262.

G17A A78U: the self-cleavage turned out to be 0.242.

For G17C C62U, the self-cleavage is 0.405.

As to G17A U79G, the self-cleavage was determined as 0.388.

On to G17A G59A, for which the self-cleavage was found to be 0.635.

For G17A G59C, the self-cleavage worked out at 0.66.

Consider A16U U47G, for which the self-cleavage worked out at 0.692.

On to G17C C19U, for which the self-cleavage turned out to be 0.128.

Take A16U G40A: the self-cleavage is 0.928.

As to A16U U69G, the self-cleavage was determined as 1.16.

For G17A C24G, the self-cleavage stood at 0.0791.

As for G17A C58A, the self-cleavage came out at 0.746.

For A16U A78G, the self-cleavage stood at 0.332.

In the case of A16U C63A, the self-cleavage came out at 1.08.

Consider A16U C63U, for which the self-cleavage is 1.14.

G17C C66A: the self-cleavage amounted to 0.262.

As to G17C G28U, the self-cleavage was determined as 0.0707.

Regarding G17C G28C, the self-cleavage is 0.125.

Turning to A16U U23C, the self-cleavage is 0.831.

A16U C64U: the self-cleavage amounted to 0.866.

Take A16U C66U: the self-cleavage was determined as 1.05.

As for G17A G38U, the self-cleavage stood at 0.1.

Turning to A16U U79G, the self-cleavage came out at 1.13.

Regarding G17A C44A, the self-cleavage was 0.306.

As for G17A C44U, the self-cleavage was 0.231.

In the case of A16U U65C, the self-cleavage worked out at 0.965.

As to A16U U65A, the self-cleavage worked out at 0.831.

With G17C C86G, the self-cleavage is 0.131.

For the variant G17C C86A, the self-cleavage worked out at 0.365.

As for A16U C22G, the self-cleavage is 0.161.

With A16U C22U, the self-cleavage was found to be 0.612.

Take A16G U72C: the self-cleavage stood at 0.831.

In the case of G17A C64A, the self-cleavage is 0.645.

With G17A C64U, the self-cleavage stood at 0.722.

Consider G17C C32U, for which the self-cleavage was found to be 0.

On to A16U C19A, for which the self-cleavage amounted to 0.285.

Take G17C C21A: the self-cleavage worked out at 0.0519.

As to A16U C30G, the self-cleavage came to 0.119.

As to A16U C30U, the self-cleavage is 0.68.

Turning to A16U G35C, the self-cleavage came out at 0.128.

Take G17A C63A: the self-cleavage was determined as 0.611.

For the variant G17A C63G, the self-cleavage worked out at 0.633.

Turning to G17C A45C, the self-cleavage was determined as 0.0519.

With G17C A45G, the self-cleavage was found to be 0.119.

For the variant G17A A51C, the self-cleavage stood at 0.755.

Consider G17A A51G, for which the self-cleavage turned out to be 0.782.

Consider G17A C75G, for which the self-cleavage amounted to 0.0773.

As to A16U G25A, the self-cleavage came out at 0.0707.

Take A16U G25U: the self-cleavage is 0.166.

Regarding G17A C61A, the self-cleavage was found to be 0.594.

As for G17C G50A, the self-cleavage stood at 0.148.

On to G17C G50U, for which the self-cleavage came to 0.332.

On to G17A C21G, for which the self-cleavage was found to be 0.0415.

Consider A16U G59A, for which the self-cleavage is 0.967.

Take A16U A45C: the self-cleavage was 0.462.

As to A16U A45U, the self-cleavage is 0.831.

As for G17A A43U, the self-cleavage amounted to 0.237.

As to G17C C24A, the self-cleavage is 0.0519.

Take A16U G68U: the self-cleavage turned out to be 1.18.

With A16U G74U, the self-cleavage stood at 0.394.

Consider G17A U46G, for which the self-cleavage was 0.229.

In the case of G17A U46A, the self-cleavage stood at 0.308.

Take G17C C26U: the self-cleavage came to 0.359.

Regarding G17C C26A, the self-cleavage was found to be 0.369.

For the variant A16U G80U, the self-cleavage amounted to 0.41.

As to A16U G80C, the self-cleavage came out at 0.145.
